From patent WO2021244601A1 (dated 2021)

What was measured:
Experiment in all cases: cell-based or functional assay
[1] = biological target: S protein on pseudovirus of B.1.351 strain (SARS-CoV-2 B.1.351 strain)
[2] = biological target: S protein on pseudovirus of B.1.1.7 strain (hCoV-19/England/QEUH-F56F0F/2021) (SARS-CoV-2 B.1.1.7 strain)
[3] = biological target: S protein on pseudovirus of p.1 strain (SARS-CoV-2 p.1 strain)

| Binder | IC50, pseudovirus neutralisation (method as 3.15) [1] | IC50, pseudovirus neutralisation (method as 3.15) [2] | IC50, pseudovirus neutralisation (method as 3.15) [3] |
| --- | --- | --- | --- |
| CA304 (antibody, V domains shown) VH: EVQLQQWGAGLLKPSETLSLTCAVYGGSFSGYYWSWIRQPPGKGLEWIGEVNHSGSTNYNPSLKSRVTISVDTSKNQLSLKLNSVTAADTAVYYCARGNTMVRGVIIPFEYWDKGTLVTVSS VL: DIVMTQTPLSLPVTLGQPASISCRSSQSLVHSDGNTYLNWFQQRPGQSPRRLIYKVSNRDSGVPDRFSGSGAGTDFTLKISRVEAEDVGVYYCTQATQFPFTFGPGTKVDIKR | 12.2 nM | 4.06 nM | 3.53 nM |
| CA555 (antibody, V domains shown) VH: EVQLQQWGAGLLKPSETLSLTCAVYGGSFSGYYWSWIRQPPGKGLEWIGEVNHSGSTNYNPSLKSRVTISVDTSKNQLSLKLNSVTAADTAVYYCARGNTMVRGVIIPFEYWDKGTLVTVSS VL: not shown | 13.9 nM | 3.17 nM | 1.58 nM |
